Source: US20260097113A1 (Pfizer, published 2026)

T1: RSV F protein of subtype A comprising a polypeptide of SEQ ID NO: 1 and a polypeptide of SEQ ID NO: 2 (RSV subtype A, UniProt P11209 137-513; P03420 26-109)
T1 construct: Stabilized prefusion F trimer made of three F2-F1 heterodimers; Produced recombinantly in CHO cells; also called RSV A; RSVA
T1 chain 1: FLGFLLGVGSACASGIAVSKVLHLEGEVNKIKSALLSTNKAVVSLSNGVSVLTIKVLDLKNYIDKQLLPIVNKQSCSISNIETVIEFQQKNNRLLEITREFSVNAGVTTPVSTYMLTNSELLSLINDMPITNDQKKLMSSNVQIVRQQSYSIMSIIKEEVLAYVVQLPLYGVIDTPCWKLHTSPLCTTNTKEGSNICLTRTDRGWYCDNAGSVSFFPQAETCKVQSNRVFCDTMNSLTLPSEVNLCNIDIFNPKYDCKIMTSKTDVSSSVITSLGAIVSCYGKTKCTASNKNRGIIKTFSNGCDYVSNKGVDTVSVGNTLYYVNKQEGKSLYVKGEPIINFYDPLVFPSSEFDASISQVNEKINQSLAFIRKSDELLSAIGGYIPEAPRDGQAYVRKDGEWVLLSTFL
T1 chain 2: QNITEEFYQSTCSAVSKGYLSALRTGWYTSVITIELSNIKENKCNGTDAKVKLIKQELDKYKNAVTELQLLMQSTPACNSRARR

B1: AM14 (trimeric prefusion specific antibody of the AM14 ELISA) (antibody, V domains shown)
VH: EVQLVESGGGVVQPGRSLRLSCAASGFSFSHYAMHWVRQAPGKGLEWVAVISYDGENTYYADSVKGRFSISRDNSKNTVSLQMNSLRPEDTALYYCARDRIVDDYYYYGMDVWGQGATVTVSS
VL: DIQMTQSPSSLSASVGDRVTITCQASQDIKKYLNWYHQKPGKVPELLMHDASNLETGVPSRFSGRGSGTDFTLTISSLQPEDIGTYYCQQYDNLPPLTFGGGTKVEIKR
notes: Antibody as used in the AM14 ELISA, detected with an HRP-labeled secondary antibody

Experiments:
[1] = target: RSV A + RSV B bivalent composition (RSV subtype A; RSV subtype B); assay: AM14 Fab titration by SEC; High-Slow 1 cycle; 8 M 25°C
[2] = target: RSV A + RSV B bivalent composition (RSV subtype A; RSV subtype B); assay: AM14 Fab titration by SEC; High-Slow 2 cycle; 1 M 25°C
[3] = target: RSV A + RSV B bivalent composition (RSV subtype A; RSV subtype B); assay: AM14 Fab titration by SEC; High-Slow 2 cycle; 3 M 25°C
[4] = target: RSV A + RSV B bivalent composition (RSV subtype A; RSV subtype B); assay: AM14 Fab titration by SEC; High-Slow 2 cycle; 8 M 2-8°C
[5] = target: RSV A + RSV B bivalent composition (RSV subtype A; RSV subtype B); assay: AM14 Fab titration by SEC; Target cycle; 3 M 2-8°C (second value)
[6] = target: RSV A + RSV B bivalent composition (RSV subtype A; RSV subtype B); assay: AM14 Fab titration by SEC; High-Slow 2 cycle; 1 M 2-8°C (second value)
[7] = target: RSV A + RSV B bivalent composition (RSV subtype A; RSV subtype B); assay: AM14 Fab titration by SEC; composition of Table 17; Pre-lyo Prep 1, T0
[8] = target: RSV A + RSV B bivalent composition (RSV subtype A; RSV subtype B); assay: AM14 Fab titration by SEC; composition of Table 17; Pre-lyo Prep 2, T0 (second value)
[9] = target: T1, RSV F protein of subtype A comprising a …; assay: AM14 ELISA; F15 (pH 6, 0 mM NaCl, 9% sucrose); 2 wk 5°C
[10] = target: T1, RSV F protein of subtype A comprising a …; assay: AM14 ELISA; F7 (pH 6, 100 mM NaCl, 0% sucrose); 1 wk 5°C
[11] = target: T1, RSV F protein of subtype A comprising a …; assay: AM14 ELISA; F4 (pH 6, 50 mM NaCl, 4.5% sucrose); 1 wk 5°C
[12] = target: T1, RSV F protein of subtype A comprising a …; assay: AM14 ELISA; F9 (pH 8, 50 mM NaCl, 4.5% sucrose); 1 wk 5°C
[13] = target: T1, RSV F protein of subtype A comprising a …; assay: AM14 ELISA; F11 (pH 7, 50 mM NaCl, 9.0% sucrose); 1 wk 5°C
[14] = target: T1, RSV F protein of subtype A comprising a …; assay: AM14 ELISA; F9 (pH 8, 50 mM NaCl, 4.5% sucrose); 2 wk 25°C
[15] = target: T1, RSV F protein of subtype A comprising a …; assay: AM14 ELISA; F12 (pH 8, 100 mM NaCl, 9.0% sucrose); 1 wk 5°C
[16] = target: T1, RSV F protein of subtype A comprising a …; assay: AM14 ELISA; F12 (pH 8, 100 mM NaCl, 9.0% sucrose); 1 wk 25°C
[17] = target: T1, RSV F protein of subtype A comprising a …; assay: AM14 ELISA; F17 (pH 7, 50 mM NaCl, 4.5% trehalose); 1 wk 25°C
[18] = target: T1, RSV F protein of subtype A comprising a …; assay: AM14 ELISA; F19 (pH 7, 50 mM NaCl, 3% trehalose + 3% mannitol); 1 wk 5°C

Row | Molecule | Prefusion Content (%) [1] | Prefusion Content (%) [2] | Prefusion Content (%) [3] | Prefusion Content (%) [4] | Prefusion Content (%) [5] | Prefusion Content (%) [6] | Prefusion Content (%) [7] | Prefusion Content (%) [8] | AM14 prefusion content (%), relative to standard [9] | AM14 prefusion content (%), relative to standard [10] | AM14 prefusion content (%), relative to standard [11] | AM14 prefusion content (%), relative to standard [12] | AM14 prefusion content (%), relative to standard [13] | AM14 prefusion content (%), relative to standard [14] | AM14 prefusion content (%), relative to standard [15] | AM14 prefusion content (%), relative to standard [16] | AM14 prefusion content (%), relative to standard [17] | AM14 prefusion content (%), relative to standard [18]
1 | AM14 Fab | 63% | 72% | 74% | 72% | 70% | 65% | 85% | 82% | – | – | – | – | – | – | – | – | – | –
2 | B1 | – | – | – | – | – | – | – | – | 84% | 61% | 76% | 94% | 101% | 60% | 98% | 82% | 105% | 74%
